Experimental findings from article PMC6125214 (Cancer immunology research, 2018) are described below.

The target of one assay is human Siglec-6-Fc (Homo sapiens, UniProt O43699). Nature of the assay: SPR. In general terms: SPR reads the build-up and loss of mass on a sensor chip optically.
The target in another assay is human CD22-Fc (Homo sapiens, UniProt P20273). Description: ELISA. For orientation: ELISA stands for enzyme-linked immunosorbent assay.
The target of another assay is human CD33-Fc (Homo sapiens, UniProt P20138). Description: ELISA.
The target in another assay is human Siglec-8-Fc (Homo sapiens, UniProt Q9NYZ4). Nature of the assay: ELISA.
Sequence of human Siglec-8-Fc (Q9NYZ4 17-363): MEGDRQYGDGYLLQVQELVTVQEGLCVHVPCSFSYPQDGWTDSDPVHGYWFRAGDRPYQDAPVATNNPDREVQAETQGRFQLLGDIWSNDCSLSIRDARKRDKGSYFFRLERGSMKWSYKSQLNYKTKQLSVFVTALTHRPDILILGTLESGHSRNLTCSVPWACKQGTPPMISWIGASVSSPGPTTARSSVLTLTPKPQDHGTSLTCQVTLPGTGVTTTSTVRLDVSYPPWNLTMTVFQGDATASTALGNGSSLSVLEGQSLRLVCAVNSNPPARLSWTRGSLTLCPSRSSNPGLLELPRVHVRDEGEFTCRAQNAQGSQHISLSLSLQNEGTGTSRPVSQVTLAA

Sequence of human CD33-Fc (P20138 18-259): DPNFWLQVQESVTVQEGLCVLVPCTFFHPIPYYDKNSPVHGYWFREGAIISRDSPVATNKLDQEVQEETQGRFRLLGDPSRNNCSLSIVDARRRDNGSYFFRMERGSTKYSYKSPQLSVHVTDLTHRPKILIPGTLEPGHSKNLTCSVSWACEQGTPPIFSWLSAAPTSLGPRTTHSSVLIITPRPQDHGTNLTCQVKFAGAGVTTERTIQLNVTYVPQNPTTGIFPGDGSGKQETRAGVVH
Sequence of human Siglec-6-Fc (O43699 27-347): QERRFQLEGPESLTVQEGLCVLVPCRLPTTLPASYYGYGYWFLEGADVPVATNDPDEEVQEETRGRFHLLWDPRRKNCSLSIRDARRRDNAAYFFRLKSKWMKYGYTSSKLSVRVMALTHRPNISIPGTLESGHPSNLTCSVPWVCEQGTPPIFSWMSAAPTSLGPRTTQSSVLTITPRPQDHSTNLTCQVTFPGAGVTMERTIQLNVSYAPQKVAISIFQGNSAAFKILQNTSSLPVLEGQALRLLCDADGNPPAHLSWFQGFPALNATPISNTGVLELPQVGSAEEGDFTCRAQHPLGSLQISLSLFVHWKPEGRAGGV
Sequence of human CD22-Fc (P20273 20-687): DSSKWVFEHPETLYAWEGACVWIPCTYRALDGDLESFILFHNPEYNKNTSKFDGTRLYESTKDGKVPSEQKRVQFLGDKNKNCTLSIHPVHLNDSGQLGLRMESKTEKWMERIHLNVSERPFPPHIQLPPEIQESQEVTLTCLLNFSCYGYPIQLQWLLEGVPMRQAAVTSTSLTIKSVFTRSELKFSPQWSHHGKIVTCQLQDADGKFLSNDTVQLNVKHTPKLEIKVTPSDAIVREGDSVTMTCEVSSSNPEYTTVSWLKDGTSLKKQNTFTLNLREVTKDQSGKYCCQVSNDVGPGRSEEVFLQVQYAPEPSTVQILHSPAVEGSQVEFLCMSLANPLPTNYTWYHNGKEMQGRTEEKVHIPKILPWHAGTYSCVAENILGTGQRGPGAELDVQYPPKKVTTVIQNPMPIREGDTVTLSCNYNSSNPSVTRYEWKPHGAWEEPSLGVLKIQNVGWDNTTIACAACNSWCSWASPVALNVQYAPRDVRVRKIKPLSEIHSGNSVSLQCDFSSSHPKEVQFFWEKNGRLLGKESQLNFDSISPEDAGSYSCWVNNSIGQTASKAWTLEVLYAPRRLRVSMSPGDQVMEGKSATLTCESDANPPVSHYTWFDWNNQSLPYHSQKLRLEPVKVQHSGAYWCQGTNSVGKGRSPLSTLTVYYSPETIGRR

B1: JML-1 Fab (Fab, V domains shown)
VH: KVQLLESGGGLVQPGRSLRLSCAASGFTFDDYGMHWVRQAPGKGLEWVSGISWNSGSIGYADSVKGRFTISRDNSKNTLYLQMNSLRAEDTAVYYCARGGQTIDIWGQGTMVTVSS
VL: not shown
Regarding B1, the Kd in the assay with human Siglec-6-Fc was 2.8 nM.

B2: JML-1 IgG1 (antibody, V domains shown)
VH: B1 VH
VL: not shown
B2: the binding result with human CD22-Fc, with human CD33-Fc and in the assay with human Siglec-8-Fc was “no binding (tested: 1 μg/mL)” in each case.

As a reminder, the Kd is the equilibrium constant for the complex coming apart.
